In US4497799A, “Polypeptide carcinostatic agent” (Suntory Ltd., priority 1981, dated 1985):
Bridges are numbered along the chain shown (N, C = ends). Where no end group is shown, it is not given here.

Columns and labels:
Type in all cases: in vivo
[1] = Acute toxicity in the mouse, ICR
Experimental: (§1) Animal: mouse (ICR, Swiss Albino and BDF1)
(§2) ICR (female, average body weight 25.0 g, age 5-6 weeks), Swiss Albino (female, average body weight 22.3 g, 5-6 weeks) and BDF1 (female, average body weight 21.5, 6 weeks) were divided into 6 groups consisting of 6 mice each, and predetermined amounts of SPH dissolved in 0.2 ml of physiological saline were administered intraperitoneally.

[2] = Acute toxicity in the mouse, Swiss Albino
Experimental: as §1, §2

[3] = Acute toxicity in the mouse, BDF1
Experimental: as §1, §2

[4] = Acute toxicity in the mouse, overall statement
Experimental: as §1, §2
Because the long term toxicity of SPH is low, the condition of the survival mice after recovery is similar to that of the control.

Sequence: KSCCRSTLGRNCYNLCRVRGAQKLCAGVCRCKLTSSGKCPTGFPK (disulfide 3-39, 4-31, 12-29, 16-25) [SPH]
- No. died (numerator) ([1]; 0.68 mg/Kg i.p.): 0/6
- No. died (numerator) ([1]; 1.36 mg/Kg i.p.): 1/6
- No. died (numerator) ([1]; 2.04 mg/Kg i.p.): 4/6
- No. died (numerator) ([1]; 2.72 mg/Kg i.p.): 6/6
- LD50 ([1]; i.p.): 1.81 mg/kg
- No. died (numerator) ([2]; 0.50 mg/Kg i.p.): 0/6
- No. died (numerator) ([2]; 1.00 mg/Kg i.p.): 1/6
- No. died (numerator) ([2]; 1.50 mg/Kg i.p.): 4/6
- No. died (numerator) ([2]; 2.00 mg/Kg i.p.): 6/6
- LD50 ([2]; i.p.): 1.33 mg/kg
- No. died (numerator) ([3]; 1.00 mg/Kg i.p.): 0/6
- No. died (numerator) ([3]; 1.50 mg/Kg i.p.): 2/6
- No. died (numerator) ([3]; 2.00 mg/Kg i.p.): 6/6
- No. died (numerator) ([3]; 3.00 mg/Kg i.p.): 6/6
- LD50 ([3]; i.p.): 1.58 mg/kg
- LD50 ([4]; mouse, i.p., overall from Table 3): about 1.5 mg/Kg
- long term toxicity ([4]; surviving mice after recovery similar to control): low
